The values that follow come from paper PMC10786891, “Massively parallel profiling of RNA-targeting CRISPR-Cas13d”.

The labels stand for the following.
B1: target 1 insC 3' of 13,insG 3' of 4 (mixed)
RNA 1: CACCCGUGCAAAAAUGCAGGGGUCUAAAACUGAGCGGAUAACCUCUCUAUGG
RNA 2: GGGAAUGGAUCCACAUCUACGAAUUCGUACCAUAGAGAGCGUUAUCCGCGUCACCGAGAUCGGAAGAGCACACGU
B2: target 1 insA 3' of 5,insA 3' of 4 (mixed)
RNA 1: CACCCGUGCAAAAAUGCAGGGGUCUAAAACUGAGCGGAUAACCUCUCUAUGG
RNA 2: GGGAAUGGAUCCACAUCUACGAAUUCGUACCAUAGAGAGGUUAUCCGACAUCACCGAGAUCGGAAGAGCACACGU
B3: target 1 U8G,G12U (mixed)
RNA 1: CACCCGUGCAAAAAUGCAGGGGUCUAAAACUGAGCGGAUAACCUCUCUAUGG
RNA 2: GGGAAUGGAUCCACAUCUACGAAUUCGUACCAUAGAGAGUUUAGCCGCUCACCGAGAUCGGAAGAGCACACGU
B4: target 1 insA 3' of 7,insC 3' of 3 (mixed)
RNA 1: CACCCGUGCAAAAAUGCAGGGGUCUAAAACUGAGCGGAUAACCUCUCUAUGG
RNA 2: GGGAAUGGAUCCACAUCUACGAAUUCGUACCAUAGAGAGGUUAUCACGCUCCACCGAGAUCGGAAGAGCACACGU
B5: target 1 insC 3' of 16,insC 3' of 8 (mixed)
RNA 1: CACCCGUGCAAAAAUGCAGGGGUCUAAAACUGAGCGGAUAACCUCUCUAUGG
RNA 2: GGGAAUGGAUCCACAUCUACGAAUUCGUACCAUAGACGAGGUUAUCCCGCUCACCGAGAUCGGAAGAGCACACGU
B6: target 1 insA 3' of 6,insA 3' of 5 (mixed)
RNA 1: CACCCGUGCAAAAAUGCAGGGGUCUAAAACUGAGCGGAUAACCUCUCUAUGG
RNA 2: GGGAAUGGAUCCACAUCUACGAAUUCGUACCAUAGAGAGGUUAUCCAGACUCACCGAGAUCGGAAGAGCACACGU
B7: target 1 MT 5'PFS UAG 3'PFS UUC (mixed)
RNA 1: CACCCGUGCAAAAAUGCAGGGGUCUAAAACUGAGCGGAUAACCUCUCUAUGG
RNA 2: GGGAAUGGAUCCACAUCUACGAAUUCUAGCCAUAGAGAGGUUAUCCGCUCAUUCAGAUCGGAAGAGCACACGU
B8: target 1 insA 3' of 8,insU 3' of 1 (mixed)
RNA 1: CACCCGUGCAAAAAUGCAGGGGUCUAAAACUGAGCGGAUAACCUCUCUAUGG
RNA 2: GGGAAUGGAUCCACAUCUACGAAUUCGUACCAUAGAGAGGUUAUACCGCUCAUCCGAGAUCGGAAGAGCACACGU
B9: target 1 C6U,A18C (mixed)
RNA 1: CACCCGUGCAAAAAUGCAGGGGUCUAAAACUGAGCGGAUAACCUCUCUAUGG
RNA 2: GGGAAUGGAUCCACAUCUACGAAUUCGUACCAUCGAGAGGUUAUCUGCUCACCGAGAUCGGAAGAGCACACGU
B10: target 1 insA 3' of 21,insA 3' of 21 (mixed)
RNA 1: CACCCGUGCAAAAAUGCAGGGGUCUAAAACUGAGCGGAUAACCUCUCUAUGG
RNA 2: GGGAAUGGAUCCACAUCUACGAAUUCGUACCAAAUAGAGAGGUUAUCCGCUCACCGAGAUCGGAAGAGCACACGU
B11: target 1 insA 3' of 17,insA 3' of 3 (mixed)
RNA 1: CACCCGUGCAAAAAUGCAGGGGUCUAAAACUGAGCGGAUAACCUCUCUAUGG
RNA 2: GGGAAUGGAUCCACAUCUACGAAUUCGUACCAUAGAAGAGGUUAUCCGCUACACCGAGAUCGGAAGAGCACACGU
B12: target 1 MT 5'PFS CUG 3'PFS CAC (mixed)
RNA 1: CACCCGUGCAAAAAUGCAGGGGUCUAAAACUGAGCGGAUAACCUCUCUAUGG
RNA 2: GGGAAUGGAUCCACAUCUACGAAUUCCUGCCAUAGAGAGGUUAUCCGCUCACACAGAUCGGAAGAGCACACGU
B13: target 1 insA 3' of 17,insC 3' of 11 (mixed)
RNA 1: CACCCGUGCAAAAAUGCAGGGGUCUAAAACUGAGCGGAUAACCUCUCUAUGG
RNA 2: GGGAAUGGAUCCACAUCUACGAAUUCGUACCAUAGAAGAGGUCUAUCCGCUCACCGAGAUCGGAAGAGCACACGU
B14: target 1 MT 5'PFS UAG 3'PFS UUU (mixed)
RNA 1: CACCCGUGCAAAAAUGCAGGGGUCUAAAACUGAGCGGAUAACCUCUCUAUGG
RNA 2: GGGAAUGGAUCCACAUCUACGAAUUCUAGCCAUAGAGAGGUUAUCCGCUCAUUUAGAUCGGAAGAGCACACGU
B15: target 1 MT 5'PFS UGC 3'PFS AAA (mixed)
RNA 1: CACCCGUGCAAAAAUGCAGGGGUCUAAAACUGAGCGGAUAACCUCUCUAUGG
RNA 2: GGGAAUGGAUCCACAUCUACGAAUUCUGCCCAUAGAGAGGUUAUCCGCUCAAAAAGAUCGGAAGAGCACACGU
B16: target 1 MT 5'PFS UGC 3'PFS AAC (mixed)
RNA 1: CACCCGUGCAAAAAUGCAGGGGUCUAAAACUGAGCGGAUAACCUCUCUAUGG
RNA 2: GGGAAUGGAUCCACAUCUACGAAUUCUGCCCAUAGAGAGGUUAUCCGCUCAAACAGAUCGGAAGAGCACACGU
B17: target 1 insU 3' of 21,insA 3' of 6 (mixed)
RNA 1: CACCCGUGCAAAAAUGCAGGGGUCUAAAACUGAGCGGAUAACCUCUCUAUGG
RNA 2: GGGAAUGGAUCCACAUCUACGAAUUCGUACCUAUAGAGAGGUUAUCCAGCUCACCGAGAUCGGAAGAGCACACGU
B18: target 1 insU 3' of 14,insA 3' of 13 (mixed)
RNA 1: CACCCGUGCAAAAAUGCAGGGGUCUAAAACUGAGCGGAUAACCUCUCUAUGG
RNA 2: GGGAAUGGAUCCACAUCUACGAAUUCGUACCAUAGAGAUGAGUUAUCCGCUCACCGAGAUCGGAAGAGCACACGU
B19: target 1 MT 5'PFS UAG 3'PFS UUG (mixed)
RNA 1: CACCCGUGCAAAAAUGCAGGGGUCUAAAACUGAGCGGAUAACCUCUCUAUGG
RNA 2: GGGAAUGGAUCCACAUCUACGAAUUCUAGCCAUAGAGAGGUUAUCCGCUCAUUGAGAUCGGAAGAGCACACGU
B20: target 1 insA 3' of 8,insA 3' of 2 (mixed)
RNA 1: CACCCGUGCAAAAAUGCAGGGGUCUAAAACUGAGCGGAUAACCUCUCUAUGG
RNA 2: GGGAAUGGAUCCACAUCUACGAAUUCGUACCAUAGAGAGGUUAUACCGCUCAACCGAGAUCGGAAGAGCACACGU
B21: target 1 insA 3' of 5,insC 3' of 5 (mixed)
RNA 1: CACCCGUGCAAAAAUGCAGGGGUCUAAAACUGAGCGGAUAACCUCUCUAUGG
RNA 2: GGGAAUGGAUCCACAUCUACGAAUUCGUACCAUAGAGAGGUUAUCCGACCUCACCGAGAUCGGAAGAGCACACGU
B22: target 1 MT 5'PFS UAG 3'PFS UUA (mixed)
RNA 1: CACCCGUGCAAAAAUGCAGGGGUCUAAAACUGAGCGGAUAACCUCUCUAUGG
RNA 2: GGGAAUGGAUCCACAUCUACGAAUUCUAGCCAUAGAGAGGUUAUCCGCUCAUUAAGAUCGGAAGAGCACACGU
B23: target 1 insC 3' of 22,insG 3' of 4 (mixed)
RNA 1: CACCCGUGCAAAAAUGCAGGGGUCUAAAACUGAGCGGAUAACCUCUCUAUGG
RNA 2: GGGAAUGGAUCCACAUCUACGAAUUCGUACCCAUAGAGAGGUUAUCCGCGUCACCGAGAUCGGAAGAGCACACGU
B24: target 1 insC 3' of 17,insA 3' of 5 (mixed)
RNA 1: CACCCGUGCAAAAAUGCAGGGGUCUAAAACUGAGCGGAUAACCUCUCUAUGG
RNA 2: GGGAAUGGAUCCACAUCUACGAAUUCGUACCAUAGCAGAGGUUAUCCGACUCACCGAGAUCGGAAGAGCACACGU
B25: target 1 A16C,A20U (mixed)
RNA 1: CACCCGUGCAAAAAUGCAGGGGUCUAAAACUGAGCGGAUAACCUCUCUAUGG
RNA 2: GGGAAUGGAUCCACAUCUACGAAUUCGUACCUUAGCGAGGUUAUCCGCUCACCGAGAUCGGAAGAGCACACGU
B26: target 1 A16G (mixed)
RNA 1: CACCCGUGCAAAAAUGCAGGGGUCUAAAACUGAGCGGAUAACCUCUCUAUGG
RNA 2: GGGAAUGGAUCCACAUCUACGAAUUCGUACCAUAGGGAGGUUAUCCGCUCACCGAGAUCGGAAGAGCACACGU
B27: target 1 MT 5'PFS GAA 3'PFS CAU (mixed)
RNA 1: CACCCGUGCAAAAAUGCAGGGGUCUAAAACUGAGCGGAUAACCUCUCUAUGG
RNA 2: GGGAAUGGAUCCACAUCUACGAAUUCGAACCAUAGAGAGGUUAUCCGCUCACAUAGAUCGGAAGAGCACACGU

The series addresses T1, EsCas13d, nuclease-dead (Eubacterium siraeum, UniProt B0MS50, R295A;H300A;R849A;H854A).
T1 sequence: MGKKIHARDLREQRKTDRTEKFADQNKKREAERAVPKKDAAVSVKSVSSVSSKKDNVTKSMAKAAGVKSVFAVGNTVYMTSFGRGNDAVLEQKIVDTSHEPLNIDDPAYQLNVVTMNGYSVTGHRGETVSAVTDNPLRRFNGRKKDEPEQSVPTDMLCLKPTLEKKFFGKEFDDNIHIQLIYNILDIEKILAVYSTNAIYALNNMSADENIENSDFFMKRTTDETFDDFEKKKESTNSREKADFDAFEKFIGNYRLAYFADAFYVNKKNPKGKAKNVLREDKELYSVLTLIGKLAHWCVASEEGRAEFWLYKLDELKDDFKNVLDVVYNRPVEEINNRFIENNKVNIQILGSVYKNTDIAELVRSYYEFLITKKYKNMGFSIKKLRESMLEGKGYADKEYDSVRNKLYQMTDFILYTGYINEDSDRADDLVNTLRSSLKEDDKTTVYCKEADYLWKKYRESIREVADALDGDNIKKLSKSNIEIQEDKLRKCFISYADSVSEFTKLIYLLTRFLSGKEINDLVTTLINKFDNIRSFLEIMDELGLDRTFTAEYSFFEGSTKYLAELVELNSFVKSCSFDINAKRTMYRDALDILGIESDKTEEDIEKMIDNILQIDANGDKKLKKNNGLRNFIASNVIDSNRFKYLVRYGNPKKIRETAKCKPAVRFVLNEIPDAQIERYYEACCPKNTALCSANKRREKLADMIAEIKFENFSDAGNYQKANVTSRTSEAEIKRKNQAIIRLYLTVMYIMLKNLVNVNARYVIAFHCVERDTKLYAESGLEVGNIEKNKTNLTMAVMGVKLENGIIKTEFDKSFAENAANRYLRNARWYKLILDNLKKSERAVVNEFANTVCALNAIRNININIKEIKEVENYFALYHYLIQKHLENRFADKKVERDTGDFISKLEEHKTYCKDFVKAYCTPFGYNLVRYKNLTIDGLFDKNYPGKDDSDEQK
Nature of the series: crRNA (strand 1, pre-loaded); Mg2+; 40 mM Tris-HCl pH 7.5, 150 mM NaCl, 6 mM MgCl2, 1 mM DTT, 0.1% Tween-20, 0.2 mg/ml BSA; 25 C; 10 min per concentration, then washed. To be noted: tags: His6-TwinStrep-SUMO cleaved; N-terminal SNAP kept (SNAP-Surface 488); label: 3' end held by stalled T7 RNA polymerase.
The molecule B1 registered a Kd of 5.33 ± 0.22 nM.

The molecule B2 displayed a Kd of 9.8 ± 1.1 nM.

B3 had a Kd of 11.8 ± 1.3 nM.

Molecule B4 showed a Kd of 6.32 ± 0.25 nM.

B5 yielded a Kd of roughly 90 nM.

B6 had a Kd of 53 ± 6 nM.

B7: the Kd worked out at 18.9 ± 3.85 nM.

The molecule B8 returned a Kd of 12.9 ± 0.6 nM.

As for B9, the Kd amounted to 58 ± 7 nM.

The molecule B10 returned a Kd of 15.4 ± 0.8 nM.

B11 yielded a Kd of 11.7 ± 0.4 nM.

In turn, B12 yielded a Kd of 5.25 ± 1.6 nM.

In the case of B13, the Kd was determined as 51 ± 10 nM.

For B14, the Kd stood at 23.4 ± 3.05 nM.

As to B15, the Kd was roughly 50 nM.

For the molecule B16, the Kd is roughly 40 nM.

With B17, binding was put at a Kd of 28.2 ± 2.3 nM.

In the case of B18, the Kd is 9.2 ± 0.8 nM.

For B19, the affinity, expressed as Kd, was 12.9 ± 1.1 nM.

For B20, the Kd is 17.9 ± 0.6 nM.

For B21, the Kd came to 11.3 ± 1 nM.

B22: binding was characterised by a dissociation constant (Kd) of 18.4 ± 3.7 nM.

B23 showed a Kd of 12.8 ± 1.1 nM.

The molecule B24 gave a Kd of 23 ± 4 nM.

Molecule B25 yielded a Kd of 85 ± 29 nM.

The molecule B26 yielded a Kd of 29.4 ± 1.4 nM.

B27 yielded a Kd of roughly 95 nM.

By Kd is commonly meant the equilibrium constant for the complex coming apart.
